Laboratory results reported in article PMC3792479 (Genes & Development, 2013).
Where no end group is shown, it is not given here. [ ]: non-standard residue; d: D form. SeMet = C[Se]CC[C@H](N)C(=O)O

T1: CED-4 apoptosome (full-length wild-type CED-4) (C. elegans, UniProt P30429 1-549)
T1 sequence (looked up): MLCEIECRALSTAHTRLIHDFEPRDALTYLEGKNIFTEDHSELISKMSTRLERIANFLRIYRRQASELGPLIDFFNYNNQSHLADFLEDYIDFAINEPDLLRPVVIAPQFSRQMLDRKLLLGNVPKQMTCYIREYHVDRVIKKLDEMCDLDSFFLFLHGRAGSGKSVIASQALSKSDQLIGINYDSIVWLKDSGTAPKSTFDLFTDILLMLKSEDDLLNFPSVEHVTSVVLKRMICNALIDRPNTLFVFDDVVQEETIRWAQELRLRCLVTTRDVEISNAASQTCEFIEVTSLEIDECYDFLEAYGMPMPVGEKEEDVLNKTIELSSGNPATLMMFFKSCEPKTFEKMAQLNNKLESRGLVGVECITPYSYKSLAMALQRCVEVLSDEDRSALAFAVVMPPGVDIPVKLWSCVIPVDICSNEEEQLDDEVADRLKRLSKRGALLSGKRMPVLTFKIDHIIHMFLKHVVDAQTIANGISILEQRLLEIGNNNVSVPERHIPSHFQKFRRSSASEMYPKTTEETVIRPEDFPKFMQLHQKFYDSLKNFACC


Tests used:
[1] = molecular target: T1, CED-4 apoptosome (full-length wild-type …); assay: SEC
crystal structure = molecular target: the molecule itself; assay: crystal structure
[2] = molecular target: T1, CED-4 apoptosome (full-length wild-type …); assay: crystal structure

Binder | binding result [1] | binding result [2] | also measured
two-chain CED-3 (residues 198–374, 389–503, and C358A) (domain or fragment, C. elegans) chain 1: NRSFSKASGPTQYIFHEEDMNFVDAPTISRVFDEKTMYRNFSSPRGMCLIINNEHFEQMPTRNGTKADKDNLTNLFRCMGYTVICKDNLTGRGMLLTIRDFAKHESHGDSAILVILSHGEENVIIGVDDIPISTHEIYDLLNAANAPRLANKPKIVFVQAARGERRDNGFPVLDSVD chain 2: GPLFNFLGCVRPQVQQVWRKKPSQADILIAYATTAQYVSWRNSARGSWFIQAVCEVFSTHAKDMDVVELLTEVNKKVACGFQTSQGSNILKQMPEMTSRLLKKFYFWPEARNSAV | binds |  | 
two-chain CED-3 with partial deletion of the L2 loop (residues 365–374) (domain or fragment, C. elegans) chain 1: NRSFSKASGPTQYIFHEEDMNFVDAPTISRVFDEKTMYRNFSSPRGMCLIINNEHFEQMPTRNGTKADKDNLTNLFRCMGYTVICKDNLTGRGMLLTIRDFAKHESHGDSAILVILSHGEENVIIGVDDIPISTHEIYDLLNAANAPRLANKPKIVFVQAARGERRD chain 2: GPLFNFLGCVRPQVQQVWRKKPSQADILIAYATTAQYVSWRNSARGSWFIQAVCEVFSTHAKDMDVVELLTEVNKKVACGFQTSQGSNILKQMPEMTSRLLKKFYFWPEARNSAV | binds |  | 
two-chain caspase domain of CED-3 (residues 198–374, 389–503, and C358S) (domain or fragment, C. elegans) chain 1: NRSFSKASGPTQYIFHEEDMNFVDAPTISRVFDEKTMYRNFSSPRGMCLIINNEHFEQMPTRNGTKADKDNLTNLFRCMGYTVICKDNLTGRGMLLTIRDFAKHESHGDSAILVILSHGEENVIIGVDDIPISTHEIYDLLNAANAPRLANKPKIVFVQASRGERRDNGFPVLDSVD chain 2: GPLFNFLGCVRPQVQQVWRKKPSQADILIAYATTAQYVSWRNSARGSWFIQAVCEVFSTHAKDMDVVELLTEVNKKVACGFQTSQGSNILKQMPEMTSRLLKKFYFWPEARNSAV |  |  | stoichiometry N (crystal structure): 2
CED-3 (residues 198–503 and C358S) (domain or fragment, C. elegans, UniProt P42573 198-503, looked up) NRSFSKASGPTQYIFHEEDMNFVDAPTISRVFDEKTMYRNFSSPRGMCLIINNEHFEQMPTRNGTKADKDNLTNLFRCMGYTVICKDNLTGRGMLLTIRDFAKHESHGDSAILVILSHGEENVIIGVDDIPISTHEIYDLLNAANAPRLANKPKIVFVQASRGERRDNGFPVLDSVDGVPAFLRRGWDNRDGPLFNFLGCVRPQVQQVWRKKPSQADILIAYATTAQYVSWRNSARGSWFIQAVCEVFSTHAKDMDVVELLTEVNKKVACGFQTSQGSNILKQMPEMTSRLLKKFYFWPEARNSAV | binds |  | 
GPLFNFLGCVRPQVQQVWRKK (peptide, UniProt P42573 389-409, looked up) [CED-3 L2′ loop fragment (residues 389–409)] |  |  | stoichiometry N [2]: 8 L2′ loop fragments per CED-4 apoptosome

The next lines start with results.

binding result [1] | binding result [2] | Binder | also measured
 | binds | GP[SeMet]FNF[SeMet]GCVRPQVQQVWRKK (peptide, UniProt P42573 389-409, looked up) [CED-3 L2′ loop fragment (residues 389–409) with Leu391 and Leu395 replaced by selenomethionine] | 
 | binds | GP[SeMet]FNFLGCVRPQVQQVWRKK (peptide, UniProt P42573 389-409, looked up) [CED-3 L2′ loop fragment (residues 389–409) with Leu391 replaced by selenomethionine] | 
 | binds | GPLFNF[SeMet]GCVRPQVQQVWRKK (peptide, UniProt P42573 389-409, looked up) [CED-3 L2′ loop fragment (residues 389–409) with Leu395 replaced by selenomethionine] | 
